From patent US20230287125A1 (LEPU BIOPHARMA, published 2023)

Legend:
human PD-L1-Fc protein [1] = target: T1, human PD-L1-Fc protein (human, UniProt Q9NZQ7 19-238); experiment: receptor blocking ELISA: coated human PD-L1-Fc, blocked ligand biotin-labeled human CD80-Fc (Bio-CD80), OD 450nm; middle left panel (with Hu67F3G7-5)
T1 construct: coating antigen of the ELISAs; also called rhPD-L1-Fc; not shown: Fc
Description: (§1) Briefly, microtiter plates were coated with human PD-L1-Fc protein at 0.5 μg/ml in PBS, 100 μl/well at 4° C. overnight, then blocked with 150 μl/well of 1% BSA at 37° C. for 2 hours. […] The plates were washed with PBS/Tween and then incubated with Streptavidin-HRP for 10 mins at 37° C. After washing, the plates were developed with TMB substrate and analyzed by spectrophotometer at OD 450 nm.

human PD-L1-Fc protein [2] = target: T1, human PD-L1-Fc protein; experiment: receptor blocking ELISA: coated human PD-L1-Fc, blocked ligand biotin-labeled human PD-1-Fc (Bio-PD1), OD 450nm; panel with Hu67F3G7-22 [cont'd]
Description: as §1

human PD-L1-Fc protein [3] = target: T1, human PD-L1-Fc protein; experiment: ELISA, coated human PD-L1 (PD-L1-Fc per paragraph 110)
Description: as §1, with “1% BSA.” for “1% BSA at 37° C. for 2 hours.”, “with Mouse-anti-human IgG Fab antibody conjugated with Horse Radish Peroxidase (HRP)” for “with Streptavidin-HRP”, “for 30” for “for 10”
Briefly, microtiter plates were coated with human, mouse, rat and cynomolgus PD-L1 proteins at 0.5 μg/ml in PBS, 100 μl/well at 4° C. overnight, then blocked with 150 μl/well of 1% BSA. Three-fold dilutions of chimeric antibodies starting from 10 μg/ml were added to each well and incubated for 1 hour at 37° C. The plates were washed with PBS/Tween and then incubate with mouse-anti-human IgG Fab antibody conjugated with Horse Radish Peroxidase (HRP) for 30 mins at 37° C. After washing, the plates were developed with TMB substrate and analyzed by spectrophotometer at OD 450 nm.

[4] = target: T2, human PD-L1-his tag protein (human, UniProt Q9NZQ7 19-238); experiment: SPR (Biacore T200), mAb captured on Protein A chip, PD-L1-his injected
T2 construct: also called human PD-L1-His protein; recombinant PD-L1 protein; not shown: his tag
Description: A serial dilution of human PD-L1-his tag protein was injected over captured antibody for 2 mins at a flow rate of 30 μl/min. The antigen was allowed to dissociate for 480-1500 s. All the experiment were carried out on a Biacore T200. Data analysis was carried out using Biacore T200 evaluation software.

human PD-L1-Fc protein [5] = target: T1, human PD-L1-Fc protein; experiment: receptor blocking ELISA: coated human PD-L1-Fc, blocked ligand biotin-labeled human CD80-Fc (Bio-CD80), OD 450nm; upper right panel (with Hu67F3G7-3)
Description: as §1

mouse PD-L1 protein = mouse PD-L1 protein (mouse, UniProt Q9EP73 19-239); experiment: ELISA, coated mouse PD-L1
[6] = target: T3, human PD-L1 over-expressed on CHOK1 cells (human, UniProt Q9NZQ7 19-290); experiment: flow cytometry (MFI) on PDL1-CHOK1 cells; upper right panel (with the Hu67F3G7 antibodies)
T3 construct: whole, on cells; also called PDL1-CHOK1 cells
Description: To evaluate the antigen binding property, the humanized antibodies were analyzed for their binding to PD-L1 overexpressed on mammalian cells by FACS. Briefly, PDL1-CHOK1 cells were firstly incubated with 3-fold serious diluted humanized antibodies starting at 15 μg/ml at 4° C. for 40 mins. After washed by PBS, the Alexa Fluor® 647 AffiniPure Goat Anti-Human IgG (H+L) antibody was added to each well and incubated at 4° C. for 30 mins. The MFI of Alexa Fluor® 647 was evaluated by FACSCanto.

T1 sequence (Q9NZQ7 19-238 limits assumed): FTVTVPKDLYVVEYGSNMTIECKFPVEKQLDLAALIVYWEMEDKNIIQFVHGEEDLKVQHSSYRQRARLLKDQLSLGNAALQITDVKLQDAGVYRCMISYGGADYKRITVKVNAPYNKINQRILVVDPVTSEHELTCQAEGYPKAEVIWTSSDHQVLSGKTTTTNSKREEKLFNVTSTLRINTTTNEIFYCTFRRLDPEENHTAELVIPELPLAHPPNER
T2 sequence (Q9NZQ7 19-238 limits assumed): as above
Sequence of mouse PD-L1 protein (Q9EP73 19-239 limits assumed): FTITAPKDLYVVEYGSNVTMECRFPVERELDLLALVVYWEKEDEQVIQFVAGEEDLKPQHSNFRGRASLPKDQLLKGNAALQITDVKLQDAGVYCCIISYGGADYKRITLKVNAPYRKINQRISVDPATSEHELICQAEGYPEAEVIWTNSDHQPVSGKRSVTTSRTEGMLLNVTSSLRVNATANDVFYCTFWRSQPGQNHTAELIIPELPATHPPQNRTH
T3 sequence (Q9NZQ7 19-290): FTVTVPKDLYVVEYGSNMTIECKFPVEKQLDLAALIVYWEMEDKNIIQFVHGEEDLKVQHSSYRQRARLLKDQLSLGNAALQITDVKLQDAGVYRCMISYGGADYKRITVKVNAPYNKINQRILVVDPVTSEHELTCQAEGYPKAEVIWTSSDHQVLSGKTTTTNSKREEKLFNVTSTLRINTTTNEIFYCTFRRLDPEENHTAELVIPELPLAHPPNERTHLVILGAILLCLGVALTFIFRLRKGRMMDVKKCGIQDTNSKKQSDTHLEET

IC50 (human PD-L1-Fc protein [1]): 0.274 µg/mL
IC50 (human PD-L1-Fc protein [2]): 0.141 µg/mL
EC50 (human PD-L1-Fc protein [3]): 0.0108 µg/mL
Kd [4]: 0.0244 nM
koff [4]: 6.19e-05 s⁻¹
kon [4]: 2.54e+06 M⁻¹ s⁻¹
IC50 (human PD-L1-Fc protein [5]): 0.289 µg/mL
EC50 [6]: 0.0577 nM
B1: 67F3G7 chimeric mAb (antibody, V domains shown)
VH: QVKLLQSGAALVKPGASVKMSCKASGYIFTDFWVSWVKQSHEKSLEWIGEIYPNSGVSRYNEKFKGRATMTVDKSTSTAYLELSRLTSEDSAIYYCTKYFGYTYWFGYWGQGTLVTVSS
VL: DTVLTQSPALAVSLGQRITISCRASKSVSTYMHWYQQRSGLQPKLLIYSASHLESGVPSRFSGSGSGTDFTLTIDPVEADDIANYYCQQSNELPVTFGSGTKLEIK
notes: chimeric mAb of the hybridoma clone; also called 67F3G7-chimera
binding result (mouse PD-L1 protein): no binding (tested: dilutions starting from 10 µg/ml)
